{"source": "patent US20180134765A1", "about": "(AVIDBIOTICS, published 2018)", "key": {"human NKG2D-Fc": {"target": "T1, human NKG2D-Fc (human, UniProt P26718 78-216, limits assumed)", "T1 construct": "also called natural NKG2D-Fc; not shown: Fc part", "T1 sequence (looked up)": "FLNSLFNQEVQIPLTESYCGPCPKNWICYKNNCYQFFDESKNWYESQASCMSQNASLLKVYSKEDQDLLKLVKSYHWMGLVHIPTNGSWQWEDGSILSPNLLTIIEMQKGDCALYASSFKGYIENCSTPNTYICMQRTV", "experiment": "competition ELISA: inhibits 2 nM human NKG2D-Fc binding to plate-coated WT sMICA"}, "[1]": {"target": "T2, biotinylated human NKG2D (Example 3) (human, UniProt P26718 78-216, limits assumed, biotinylated (site not stated))", "T2 construct": "also called recombinant biotinylated NKG2D; surface coated biotinylated human NKG2D", "T2 sequence (looked up)": "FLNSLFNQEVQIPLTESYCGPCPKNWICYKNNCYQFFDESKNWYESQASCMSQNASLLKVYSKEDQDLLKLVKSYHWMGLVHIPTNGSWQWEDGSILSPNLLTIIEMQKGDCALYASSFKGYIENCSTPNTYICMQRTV", "experiment": "biolayer interferometry (Octet), biotinylated human NKG2D on the surface, 100 nM analyte"}, "[2]": {"target": "T2, biotinylated human NKG2D (Example 3)", "experiment": "biolayer interferometry (Octet), Kd = kOFF/kON"}}, "data": [{"binder": "WT α1-α2 soluble MICA protein (Example 3) (ligand, also called WT NKG2DL; WT MICA) EPHSLRYNLTVLSWDGSVQSGFLTEVHLDGQPFLRCDRQKCRAKPQGQWAEDVLGNKTWDRETRDLTGNGKDLRMTLAHIKDQKEGLHSLQEIRVCEIHEDNSTRSSQHFYYDGELFLSQNLETKEWTMPQSSRAQTLAMNVRNFLKEDAMKTKTHYHAMHADCLQELRRYLKSGVVLRRTVPPMVQVTRSEASGGSGDRVTITCRASQDVSTAVAWYQQKPGKAPKLLIYSASFLYSGVPSRFSGSGSGTDFTLTISSLQPEDFATYYCQQSYTTPPTFGQGTKVEIKGGSSRSSSSGGGGSGGGGEVQLVESGGGLVQPGGSLRLSCAASGFTFTSTGISWVRQAPGKGLEWVGRIYPTNGSTNYADSVKGRFTISADTSKNTAYLQMNSLRAEDTAVYYCARTYGIYDLYVDYTEYVMDYWGQGTLVTVSSGGSSRSSSSGGGGSGGGGDIQMTQSPSSLSASGGSGQITVTCRASGFYPWNITLSWRQDGVSLSHDTQQWGDVLPDGQGTYQTWVATRISQGEEQRFTCYMEHSGQHSTHPVPSGKGSHHHHHH", "values": [{"measurement": "IC50", "setting": "human NKG2D-Fc", "result": 19.4, "unit": "nM"}, {"measurement": "koff", "setting": "[1]", "result": 0.0018, "unit": "s⁻¹"}, {"measurement": "kon", "setting": "[1]", "result": 130000, "unit": "M⁻¹ s⁻¹"}, {"measurement": "Kd", "setting": "[2]", "result": 13.8, "unit": "nM"}]}]}
